The values below come from the supplement of paper PMC10598134.

A short description of the data set: collision cross section of modified peptide (TIMS, N2, iRT-aligned); higher = larger / more extended gas-phase ion. On the procedure:
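1/K0 was aligned run-wise to spiked iRT peptides and converted to CCS in N2 (Mason-Schamp). Values are the mean of 1-3 technical replicates for the most abundant feature at each charge state.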

Where [1] appears, read: charge state: 2, modification: Methyl (K).
Where [2] appears, read: charge state: 3, modification: Methyl (K).
Setting [3] is: charge state: 2, modification: Acetyl (K).
Setting [4] is: charge state: 2, modification: Dimethyl (K).
Where [5] appears, read: charge state: 3, modification: Dimethyl (K).
Where [6] appears, read: charge state: 3, modification: Trimethyl (K).
Where [7] appears, read: charge state: 3, modification: Acetyl (K).
The mark [8] stands for this setting: charge state: 2, modification: Glutarylation.
[9] abbreviates: charge state: 2, modification: hydroxyisobutyryl.
Setting [10] is: charge state: 3, modification: hydroxyisobutyryl.
Setting [11] is: charge state: 2, modification: Malonyl.
Where [12] appears, read: charge state: 2, modification: GlyGly (K).
[13] abbreviates: charge state: 3, modification: GlyGly (K).
The mark [14] stands for this setting: charge state: 2, modification: Trimethyl (K).
The mark [15] stands for this setting: charge state: 2, modification: Propionyl.
The mark [16] stands for this setting: charge state: 2, modification: Crotonyl.
Where [17] appears, read: charge state: 2, modification: Methyl (R).
The mark [18] stands for this setting: charge state: 3, modification: Methyl (R).
Where [19] appears, read: charge state: 2, modification: Biotin.
Where [20] appears, read: charge state: 3, modification: Biotin.
Setting [21] is: charge state: 2, modification: Hydroxyproline.
Setting [22] is: charge state: 2, modification: Citrullination (R).
The mark [23] stands for this setting: charge state: 3, modification: Hydroxyproline.
[24] abbreviates: charge state: 2, modification: Phospho (Y).
Where [25] appears, read: charge state: 2, modification: HexNAc (ST).
Setting [26] is: charge state: 3, modification: Propionyl.

± gives the standard deviation.

GEVQVSDKER [_GEVQVSDK(Methyl (K))ER_] registered a collision cross section under setting [1] of 360.9 ± 0.67 Å² and a collision cross section under setting [2] of 436.39 ± 5.2 Å².

Under setting [3], “GFCFITYTDEEPVKK [_GFCFITYTDEEPVK(Acetyl (K))K_]” returned a collision cross section of 451.75 ± 3.1 Å².

Take LGNDFHTNKR [_LGNDFHTNK(Dimethyl (K))R_]: the collision cross section reads like this: under setting [4], 366.02 ± 0.57 Å²; under setting [5], 412.91 ± 1.1 Å².

The substance “VPTTEKPTVTVNFR [_VPTTEK(Trimethyl (K))PTVTVNFR_]” gave a collision cross section under setting [6] of 499.21 ± 1.6 Å².

Take “FDDTNPEKEEAK [_FDDTNPEK(Acetyl (K))EEAK_]”: the collision cross section is, setting by setting: under setting [3], 394.25 ± 1.3 Å²; under setting [7], 440.01 ± 0.78 Å².

Take “ANLEKAQAELVGTADEATR [_ANLEK(Acetyl (K))AQAELVGTADEATR_]”: the collision cross section reads like this: under setting [3], 471.91 ± 3.1 Å²; under setting [7], 570.31 ± 0.74 Å².

As to “TVSKVDDFLANEAK [_TVSK(Acetyl (K))VDDFLANEAK_]”, the collision cross section under setting [3] is on record as 417.71 ± 1.3 Å².

In the case of “IVFSGNLFQHQEDSKK [_IVFSGNLFQHQEDSK(Gluratylation)K_]”, the collision cross section is, setting by setting: under setting [8], 499.16 ± 1.4 Å²; (charge state: 3, modification: Glutarylation) 531.31 ± 9.1 Å².

“LLFSNTAAQKLR [_LLFSNTAAQK(hydroxyisobutyryl)LR_]”: the collision cross section runs as follows: under setting [9], 408.17 ± 0.55 Å²; under setting [10], 486.85 ± 1.9 Å².

The substance “DAEAAEATAEGALKAEK [_DAEAAEATAEGALK(Malonyl)AEK_]” returned a collision cross section under setting [11] of 425.91 ± 1 Å² and a collision cross section (charge state: 3, modification: Malonyl) of 541.5 Å².

For “GEVGAGAGPGAQAGPSAKR [_GEVGAGAGPGAQAGPSAK(GlyGly (K))R_]”, the collision cross section runs as follows: under setting [12], 426.91 ± 0.84 Å²; under setting [13], 469.61 ± 1.1 Å².

For “VFLDCCNYITELR [_VFLDCCNY(Nitro (Y))ITELR_]”, the collision cross section (charge state: 2, modification: Nitro (Y)) is reported as 448.56 ± 0.53 Å².

Regarding “IISSIEQKEENK [_IISSIEQK(Trimethyl (K))EENK_]”, the collision cross section by setting is: under setting [14], 411.54 ± 1.1 Å²; under setting [6], 448.49 ± 1.5 Å².

Regarding “GFALVGVGSEASSKK [_GFALVGVGSEASSK(Propionyl)K_]”, the collision cross section under setting [15] is 411.51 Å².

With ALLQAKASGK [_ALLQAK(Crotonyl)ASGK_], the collision cross section under setting [16] is reported as 351.6 ± 1.3 Å².

As for “VFSIISSEKELK [_VFSIISSEK(Trimethyl (K))ELK_]”, the collision cross section is, setting by setting: under setting [14], 421.37 ± 1.1 Å²; under setting [6], 454.68 ± 1.8 Å².

“GGSGGRGVSVSSAR [_GGSGGR(Methyl (R))GVSVSSAR_]”: the collision cross section is, setting by setting: under setting [17], 384.84 ± 7.6 Å²; under setting [18], 464.84 ± 13 Å².

In the case of LLFSNTAAQKLR [_LLFSNTAAQK(Biotin)LR_], the collision cross section is 418.21 ± 1.1 Å² under setting [19] and 503.51 Å² under setting [20].

In turn, VQFAPEK [_VQFAP(Hydroxyproline)EK_] returned a collision cross section under setting [21] of 316.39 ± 1.9 Å².

Regarding “AAINQKLIETGER [_AAINQK(GlyGly (K))LIETGER_]”, the collision cross section is, setting by setting: under setting [12], 412.96 ± 0.98 Å²; under setting [13], 477.22 ± 1.3 Å².

“TQAYQDQKPGTSGLR [_TQAYQDQK(Acetyl (K))PGTSGLR_]”: the collision cross section worked out at 429.11 ± 1.6 Å² under setting [3] and 480.53 ± 6.7 Å² under setting [7].

In turn, “DLGKFQVATDALK [_DLGK(Acetyl (K))FQVATDALK_]” returned a collision cross section under setting [3] of 405.65 ± 0.97 Å².

Under setting [22], “GRGAAAAGGPQR [_GR(Citrullination (R))GAAAAGGPQR_]” showed a collision cross section of 334.88 ± 0.28 Å².

In the case of “ATVASSTQKFQDLGVK [_ATVASSTQK(Biotin)FQDLGVK_]”, the collision cross section is 460.81 ± 1.3 Å² under setting [19] and 516.43 ± 0.96 Å² under setting [20].

ALLQAKASGK [_ALLQAK(Succinyl)ASGK_] returned a collision cross section (charge state: 2, modification: Succinyl) of 349.13 ± 0.82 Å².

In turn, “LTSLNVKYNNDK [_LTSLNVK(Dimethyl (K))YNNDK_]” gave a collision cross section under setting [4] of 409.23 ± 0.76 Å² and a collision cross section under setting [5] of 464.81 ± 1.6 Å².

In the case of “GQKGEPGLPGHPGK [_GQKGEPGLP(Hydroxyproline)GHPGK_]”, the collision cross section is given as 379.44 ± 1.1 Å² under setting [21] and 420.23 ± 0.34 Å² under setting [23].

In the case of AYILNLVK [_AY(Phospho (Y))ILNLVK_], under setting [24], the collision cross section is 363.28 ± 0.69 Å².

With “IDLPAENSNSETIIITGKR [_IDLPAENSNSETIIITGK(Trimethyl (K))R_]”, the collision cross section under setting [6] is recorded as 576.62 Å².

Substance “STLEEPNLQPLQR [_S(HexNAc (ST))TLEEPNLQPLQR_]” came in with a collision cross section under setting [25] of 436.25 ± 0.56 Å².

With “VRLQTTLR [_VR(Citrullination (R))LQTTLR_]”, under setting [22], the collision cross section was determined as 344.05 ± 1.2 Å².

As to “SKLLFSNTAAQK [_SK(Methyl (K))LLFSNTAAQK_]”, the collision cross section runs as follows: under setting [1], 387.94 ± 0.83 Å²; under setting [2], 461.44 ± 4.6 Å².

Regarding IHPEGPPLK [_IHP(Hydroxyproline)EGPPLK_], the collision cross section reads like this: under setting [21], 331.8 ± 0.88 Å²; under setting [23], 438.36 ± 0.43 Å².

Regarding SPDEAYAIAKK [_SPDEAYAIAK(Propionyl)K_], the collision cross section was determined as 373.53 ± 0.94 Å² under setting [15] and 448.43 ± 0.74 Å² under setting [26].

In the case of “AGQKLIDVNHYAK [_AGQK(Propionyl)LIDVNHYAK_]”, the collision cross section by setting is: under setting [15], 432.1 ± 1.1 Å²; under setting [26], 484.45 Å².

Take “SITHSTVGSKGEK [_SITHSTVGSK(hydroxyisobutyryl)GEK_]”: the collision cross section by setting is: under setting [9], 401.03 ± 1.4 Å²; under setting [10], 446.16 ± 2.7 Å².

“GDRGEIGPPGPR [_GDRGEIGPP(Hydroxyproline)GPR_]” gave a collision cross section under setting [21] of 368.56 ± 1.9 Å² and a collision cross section under setting [23] of 424.63 ± 1.2 Å².

As for “GFLQPPPLRQPR [_GFLQPPPLR(Methyl (R))QPR_]”, the collision cross section under setting [17] is given as 399.75 Å² and the collision cross section under setting [18] is recorded as 450.22 ± 3.5 Å².

For “IISSIEQKEENK [_IISSIEQK(Acetyl (K))EENK_]”, the collision cross section under setting [3] was 401.35 ± 0.23 Å².

Regarding “FSAYIKNSNPALNDNLEK [_FSAYIK(Formyl)NSNPALNDNLEK_]”, the collision cross section by setting is: (charge state: 2, modification: Formyl) 479.47 ± 1.3 Å²; (charge state: 3, modification: Formyl) 528.92 ± 9.9 Å².

Regarding “LLFSNTAAQKLR [_LLFSNTAAQK(Methyl (K))LR_]”, the collision cross section was 416.21 ± 1.5 Å² under setting [1] and 479.76 ± 3.4 Å² under setting [2].

Take DFDTALKHYDK [_DFDTALK(GlyGly (K))HYDK_]: the collision cross section under setting [12] was 400.17 ± 0.77 Å² and the collision cross section under setting [13] was 467.02 ± 1.1 Å².

Substance “LLIVSTTPYSEKDTK [_LLIVSTTPYSEK(GlyGly (K))DTK_]” gave a collision cross section under setting [12] of 461.81 ± 0.94 Å² and a collision cross section under setting [13] of 515.54 ± 1.1 Å².

For “PGPVGPPGSGGLK [_PGPVGPP(Hydroxyproline)GSGGLK_]”, under setting [21], the collision cross section stood at 349.24 ± 3.9 Å².

Take KFGVLSDNFK [_K(Dimethyl (K))FGVLSDNFK_]: under setting [4], the collision cross section is 367.27 ± 1.5 Å².

Under setting [11], ISALQGKLSK [_ISALQGK(Malonyl)LSK_] registered a collision cross section of 349.78 ± 0.6 Å².

In the case of “FVDSKVGEFSGANK [_FVDSK(Trimethyl (K))VGEFSGANK_]”, the collision cross section under setting [14] is recorded as 432.92 Å².

In the case of “YSTSGSSGLTTGK [_Y(Phospho (Y))STSGSSGLTTGK_]”, the collision cross section under setting [24] is listed as 375.26 ± 0.063 Å².

As for “DLSTVEALQNLKNLK [_DLSTVEALQNLK(Methyl (K))NLK_]”, the collision cross section under setting [1] turned out to be 475.78 ± 3.5 Å² and the collision cross section under setting [2] is 545.72 ± 1.2 Å².

The substance “ISSNFSSIIAEKLR [_ISSNFSSIIAEK(Acetyl (K))LR_]” gave a collision cross section under setting [3] of 428.83 ± 3 Å² and a collision cross section under setting [7] of 506.75 Å².

“GRGLPGPAESLR [_GR(Methyl (R))GLPGPAESLR_]” yielded a collision cross section under setting [18] of 459.68 ± 1.5 Å².

In the case of “VYIASSSGSTAIKK [_VYIASSSGSTAIK(Methyl (K))K_]”, the collision cross section is 428.78 ± 1.9 Å² under setting [1] and 495.87 ± 3.1 Å² under setting [2].

On to “ASNAAVKLAESK [_ASNAAVK(Gluratylation)LAESK_]”, for which the collision cross section under setting [8] is 379.86 ± 0.1 Å².

Under setting [23], “GDAGEPGRPGSPGK [_GDAGEP(Hydroxyproline)GRPGSPGK_]” showed a collision cross section of 446.53 ± 1.3 Å².

Turning to “DFSLTSSSQTPGATK [_DFS(HexNAc (ST))LTSSSQTPGATK_]”, the collision cross section is recorded as 426.98 ± 0.62 Å² under setting [25] and 516.25 Å² (charge state: 3, modification: HexNAc (ST)).

In turn, “DTPTSAGPNSFNKGK [_DTPTSAGPNSFNK(Propionyl)GK_]” displayed a collision cross section under setting [15] of 410.13 ± 0.64 Å².

Consider DVNAAIAAIKTK [_DVNAAIAAIK(Crotonyl)TK_], for which the collision cross section turned out to be 406.32 ± 0.28 Å² under setting [16] and 463.44 ± 4.2 Å² (charge state: 3, modification: Crotonyl).
